Measured values from the supplement of paper PMC10567573.
± gives the standard deviation.

Assay: protein stability index of a GFP-peptide fusion (GPS, HEK-293T) (PSI 1-6); higher = more stable
[1] = treatment: DMSO, c terminus: a fixed tail appended
[2] = treatment: MLN4924 1 uM, 8 h, c terminus: a fixed tail appended
[3] = treatment: DMSO, c terminus: native
[4] = treatment: MLN4924 1 uM, 8 h, c terminus: native
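Note: 24-mer peptide tiles fused after GFP, lentivirally expressed, FACS-sorted into six equal bins by GFP/DsRed ratio, decoded by Illumina sequencing, PSI is the read-weighted mean bin number.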

KRRQLEDERRQLQHLKSKALRERW [PALM]
protein stability index [1]: 3.93 ± 0.3
protein stability index [2]: 4.22 ± 0.57

TTLLRRYNIPHGPVVGSTRRLYEK [EMD]
protein stability index [1]: 3.14 ± 0.16
protein stability index [2]: 3.25 ± 0.15

IIELRRTVNALEIELQAQHSMRNS [KRT36]
protein stability index [1]: 2.38 ± 0.26
protein stability index [2]: 2.32 ± 0.33

NVNVTLLSKQAKFAYKDEYEKFKL [TMEM120A]
protein stability index [1]: 2.9 ± 0.15
protein stability index [2]: 2.82 ± 0.23

VLKAHNEYRQKHGVPPLKLCKNLN [GLIPR2]
protein stability index [1]: 2.92 ± 0.17
protein stability index [2]: 3.33 ± 0.18

GVKLEGKVPMHKLFLEMLEAMMD [ESRRA]
protein stability index [3]: 2.58 ± 0.74
protein stability index [4]: 2.66 ± 0.69

AQKALDLPSSGEGLAFFTFPNIAS [HMOX1]
protein stability index [1]: 2.88 ± 0.2
protein stability index [2]: 2.96 ± 0.25

LAGQKDELQLSDLLKQGYNKTLLR [PKD2L1]
protein stability index [1]: 3.24 ± 0.23
protein stability index [2]: 3.39 ± 0.4

VSNFLKERTGFSIRPVAGYLSPRD [TPH1]
protein stability index [1]: 2.71 ± 0.33
protein stability index [2]: 2.95 ± 0.31

YVFYLAVGNYRLKEYEKALKYVRG [FIS1]
protein stability index [1]: 2.79 ± 0.36
protein stability index [2]: 2.39 ± 0.58

RRHLQFWKSHLKKVQKPLLQAPFL [RHOBTB1]
protein stability index [1]: 2.14 ± 0.51
protein stability index [2]: 1.59 ± 0.26

YGYNNVVTIPAGATHILVRQQGNP [ADAMTS4]
protein stability index [1]: 2.53 ± 0.13
protein stability index [2]: 2.72 ± 0.34

PKAQLSGYAVEATRNQSQLQRFL [FBF1]
protein stability index [3]: 4.13 ± 0.19
protein stability index [4]: 4.21 ± 0.38

RTRRLGNMKNGANDVKHHRWFRSV [PRKX]
protein stability index [1]: 3.17 ± 0.39
protein stability index [2]: 3.14 ± 0.38

ERERLYPFSECGEAVSDSTPFLTN [ZNF263]
protein stability index [1]: 4.16 ± 0.16
protein stability index [2]: 4.11 ± 0.27

LIDQRYFQVLCSINSIIHNPRAPV [CEP70]
protein stability index [2]: 2.07 ± 0.12

YHIYVALEEEIERNKESPVFAPVY [HMOX1]
protein stability index [1]: 2.32 ± 0.28
protein stability index [2]: 3.03 ± 0.51

AAGEPLECPTCGHSYNVTQRRPRV [RNF208]
protein stability index [1]: 3.79 ± 0.16
protein stability index [2]: 4.18 ± 0.21

VAALREEQKVLSRLVESLSTQIRA [RASAL3]
protein stability index [1]: 2.34 ± 0.35
protein stability index [2]: 2.38 ± 0.11

SSREVFTSSSSSSSRQTRPILKEQ [KRT16]
protein stability index [1]: 4.67 ± 0.11
protein stability index [2]: 4.7 ± 0.3

KWTACSRSCGGGVTSQERHCLQQR [ADAMTSL2]
protein stability index [1]: 2.75 ± 0.51
protein stability index [2]: 3.37 ± 0.59

SEEGQNGSSPKSKTKWTKEDGHRT [ADD1]
protein stability index [1]: 5.36 ± 0.29
protein stability index [2]: 5.36 ± 0.23

RPLLQYVQDMGQEDMLLPLAWRIV [CCNC]
protein stability index [1]: 2.44 ± 0.17
protein stability index [2]: 2.24 ± 0.31

QGFRTVLELVINYQQLCIYWTKYY [OAS1]
protein stability index [1]: 2.96 ± 0.33
protein stability index [2]: 2.79 ± 0.51

LIYTVMLAFRSGSDNLLVILKRKW [SLC35F2]
protein stability index [1]: 2.3 ± 0.91
protein stability index [2]: 1.84 ± 0.51

VNMYVSIVFFGLISFDRYYKIVKP [P2RY14]
protein stability index [1]: 3.66 ± 0.41
protein stability index [2]: 3.06 ± 0.28

ANFSLGSINQRLNKRERSKLKNLR [RNF180]
protein stability index [1]: 2.91 ± 0.35
protein stability index [2]: 3.28 ± 0.43

MRTGQNTWESKNILAVSFAPLVQP [PCMTD1]
protein stability index [1]: 2.84 ± 0.65
protein stability index [2]: 2.71 ± 0.46

AVINDIANLPVPTIAAIDGLALGG [AUH]
protein stability index [1]: 2.79 ± 0.21
protein stability index [2]: 2.62 ± 0.23

LRDWEDLQQDFQNIQETHRLYRLK [TMEM120A]
protein stability index [1]: 3.38 ± 0.28
protein stability index [2]: 3.49 ± 0.4

KMNFSTLRNIQGLFAPLKLQMEFK [POMP]
protein stability index [1]: 2.2 ± 0.36
protein stability index [2]: 2.02 ± 0.098

CAKYTYPVCSALLDPVLQAPGTGP [FANCE]
protein stability index [1]: 2.65 ± 0.14
protein stability index [2]: 2.26 ± 0.17

SYYIIQHKPKNSEELYKEIDGVAT [PTPRD]
protein stability index [1]: 2.98 ± 0.4
protein stability index [2]: 3.18 ± 0.66

HHHLHKTLREITDQEHNVAALKQA [TEKT4]
protein stability index [1]: 4.35 ± 0.13
protein stability index [2]: 4.52 ± 0.11

FNGLTLLLMAVVSMFTLPVVYVKH [RTN1]
protein stability index [1]: 3.3 ± 0.28
protein stability index [2]: 3 ± 0.41

TVAAETRAVIAWMEKIPFVLGGNL [CPXM2]
protein stability index [1]: 2.56 ± 0.86
protein stability index [2]: 2.71 ± 0.6

GPGYWMCCHRSQKGFPGCKLGLHD [FBXO34]
protein stability index [1]: 2.21 ± 0.44
protein stability index [2]: 2.11 ± 0.56

SHCSQLTTLSFYGNSISISALQSL [PRAME]
protein stability index [1]: 2.87 ± 0.72
protein stability index [2]: 2.78 ± 0.58

PGASTEEVKRAFFSKSKELHPDRD [DNAJC4]
protein stability index [1]: 5.12 ± 0.28
protein stability index [2]: 5.18 ± 0.079

PTGDVLLDEALKHVKETQPPETVQ [GOLPH3]
protein stability index [1]: 5.32 ± 0.1
protein stability index [2]: 5.21 ± 0.1

TLVQREEPLRILSKYHRFISFTLY [CDS2]
protein stability index [1]: 2.95 ± 0.8
protein stability index [2]: 2.8 ± 0.86

VRKANRIKECLSKGTFSDVTFKLD [RHOBTB1]
protein stability index [1]: 3.33 ± 0.21
protein stability index [2]: 3.43 ± 0.19

LFAFMLVYPKEFHLNRGNHEDHMV [PPEF2]
protein stability index [1]: 3.03 ± 1
protein stability index [2]: 2.32 ± 0.35

SVLVILISIVIFCLETLPEFRDDR [KCNA4]
protein stability index [1]: 2.99 ± 0.29
protein stability index [2]: 2.96 ± 0.5

PPHYFFTYRIRIEMSKDALPEKAC [FBXO3]
protein stability index [1]: 2.47 ± 0.48
protein stability index [2]: 2.17 ± 0.23

SRWSEASRAILQRVQAAAFGPGQT [ALKBH7]
protein stability index [1]: 3.01 ± 0.38
protein stability index [2]: 3.19 ± 0.39

SQQLQLIDEQDSYIQSRADTMQNI [STX5]
protein stability index [1]: 4.59 ± 0.21
protein stability index [2]: 4.74 ± 0.26

SVTEYRLDGHTISDLSRSSRGELI [MYBL2]
protein stability index [1]: 3.67 ± 0.41
protein stability index [2]: 3.67 ± 0.38

LSNLQKESRACLERIQELEDLLAK [LMNB1]
protein stability index [1]: 3.52 ± 0.15
protein stability index [2]: 3.67 ± 0.23

TFNFISSLKAICTEIANCSLKVKF [PLD5]
protein stability index [1]: 2.68 ± 0.56
protein stability index [2]: 3.29 ± 0.1

IDRQKCMAHRTRYPTILQLAGYQ [TEKT4]
protein stability index [3]: 2.26 ± 0.37
protein stability index [4]: 2.14 ± 0.35

TTNVGRYPVGRFPSLHVVKVLLDC [FEM1A]
protein stability index [1]: 2.52 ± 0.4
protein stability index [2]: 2.48 ± 0.27

PSHLLLPPDTVSRTGLEKAAAGAV [SPDEF]
protein stability index [1]: 4.22 ± 0.33
protein stability index [2]: 4.26 ± 0.35

ELDYLMDVLVGTQALERPPGPGR [SERTAD1]
protein stability index [3]: 2.23 ± 0.26
protein stability index [4]: 2.67 ± 0.58

TLKFYCLPDNYEIIDSSLEDITYV [USP39]
protein stability index [1]: 2.18 ± 0.047
protein stability index [2]: 2.29 ± 0.19

PGNLEKNRYGDVPCLDQTRVKLTK [PTPN9]
protein stability index [2]: 4.32 ± 0.72

PRARRRLGSGPDRELRKPEEPENG [PWWP2B]
protein stability index [1]: 5.43 ± 0.14
protein stability index [2]: 5.42 ± 0.2

HMILENCSISKMEEEAGQTSIEPS [ZER1]
protein stability index [1]: 5.14 ± 0.13
protein stability index [2]: 5.2 ± 0.18

EDDDWGEDTTEEAQRRRMDEISDH [EIF5]
protein stability index [1]: 5.59 ± 0.24
protein stability index [2]: 5.34 ± 0.18

LAVGTDLYGQRNSAPEQELLVQDA [GFOD1]
protein stability index [1]: 4.66 ± 0.22
protein stability index [2]: 4.69 ± 0.36

IQRIDENVLGAQLDVEAAHSEILK [STX5]
protein stability index [1]: 4.15 ± 0.17
protein stability index [2]: 4.22 ± 0.25

LRLEREEYVLLKALALANSDSVHI [ESRRA]
protein stability index [1]: 2.51 ± 0.15
protein stability index [2]: 2.27 ± 0.2

WETIRSFKDEWTQLDMFYRNWALK [AASDHPPT]
protein stability index [1]: 2.14 ± 0.13
protein stability index [2]: 2.08 ± 0.32

GHHLLKWIIKSNYQGLPVRCVKSI [SRPK2]
protein stability index [1]: 2.2 ± 0.56
protein stability index [2]: 2.33 ± 0.34

SVPASDPRSCSSGPAGPYLLSKKG [PLEKHN1]
protein stability index [1]: 4.65 ± 0.15
protein stability index [2]: 4.69 ± 0.089

TARFQRNHRLISEILSESVVPDVR [SMARCE1]
protein stability index [2]: 3.23 ± 0.11

HTGDKPYKCAECGKSFCHSTHLTV [ZNF8]
protein stability index [1]: 3.8 ± 0.12
protein stability index [2]: 3.85 ± 0.36

DEHIASEEPAEKEDLLQQMLERRY [CLCN6]
protein stability index [1]: 5.03 ± 0.2
protein stability index [2]: 4.98 ± 0.16

TGEKLLELNGHTQKITAIITFPSL [WDR41]
protein stability index [1]: 2.45 ± 0.58
protein stability index [2]: 2.3 ± 0.55

LTYENVERWLKELRDHADSNIVIM [RAB11A]
protein stability index [1]: 2.21 ± 0.34
protein stability index [2]: 2.75 ± 0.3

HHSTQPKRNKRNPIFQDSQDTEVF [FAM104B]
protein stability index [1]: 4.19 ± 0.34
protein stability index [2]: 4.63 ± 0.27

MLIFWTITLFLLGAAKGKEVCYED [PNLIPRP1]
protein stability index [1]: 3.72 ± 0.18
protein stability index [2]: 3.3 ± 0.69

AAQELENQMKERQGLFFDMEAYLP [TMEM120A]
protein stability index [1]: 3.69 ± 0.27
protein stability index [2]: 3.87 ± 0.21

GAQVNMPADSFESPLTLAACGGHV [ANKRD17]
protein stability index [1]: 4.23 ± 0.23
protein stability index [2]: 4.24 ± 0.12

THICRSHNSINQSLDESVIYGPGN [SLC2A12]
protein stability index [1]: 3.62 ± 0.18
protein stability index [2]: 3.74 ± 0.2

EDERVVGKEQGQNLARQWNNCAFL [RAP1B]
protein stability index [1]: 4.23 ± 0.23
protein stability index [2]: 4.09 ± 0.25

VAAACACGFTVAQIITSLVFHLPF [OR10K2]
protein stability index [1]: 3.43 ± 0.54
protein stability index [2]: 3.42 ± 0.68

ACNFEPHESFFSLFSDPRSTRLTR [ZER1]
protein stability index [1]: 2.86 ± 0.22
protein stability index [2]: 2.92 ± 0.21

KGGNLRDKLDGNELDLSLSDLNEV [LRRC59]
protein stability index [1]: 4.86 ± 0.075
protein stability index [2]: 5.11 ± 0.17

APCRSAQASVSCALEALEPFWEVL [HDAC6]
protein stability index [1]: 3.32 ± 0.59
protein stability index [2]: 2.69 ± 0.82

LMDGGDLPSVTDIRRPRLYLLQWL [PLK2]
protein stability index [1]: 2.48 ± 0.17
protein stability index [2]: 2.5 ± 0.27

GPQPTMEGDVLDTLEALGYKGPLL [FAM98B]
protein stability index [1]: 4.18 ± 0.32
protein stability index [2]: 4.07 ± 0.38

SPPVPGPSAALTTMQLFSKQNPSR [FBXO28]
protein stability index [1]: 4.22 ± 0.42
protein stability index [2]: 4.33 ± 0.23

PFGESNGNGVHVCNVKYKRWALLS [KLHDC10]
protein stability index [1]: 2.08 ± 0.22
protein stability index [2]: 2.26 ± 0.33

RLRLQRTGGLGGERERQPCGDGNT [SOAT2]
protein stability index [1]: 4.59 ± 0.099
protein stability index [2]: 4.49 ± 0.14

HMGTNVIVANTMPTHLSNGQMSTP [HNF4A]
protein stability index [1]: 3.6 ± 0.18
protein stability index [2]: 3.66 ± 0.33

SAQAPPDSISLHQPCNPPAPAGDK [DMRTC1]
protein stability index [1]: 5.38 ± 0.13
protein stability index [2]: 5.28 ± 0.28

LPTLSHIQEAQSAWKDDFALNSML [YJU2B]
protein stability index [1]: 3.13 ± 0.3
protein stability index [2]: 3.04 ± 0.23

ADPLQLNKALSIILHLICLLEKVP [FEM1C]
protein stability index [1]: 3 ± 0.24
protein stability index [2]: 3.16 ± 0.9

DGEVPQHAGKKGKLSEHLRYCDSI [BRD3]
protein stability index [1]: 4.59 ± 0.23
protein stability index [2]: 4.76 ± 0.23
